From article PMC2756588

T1: Fus1, P11710
T1 sequence (P11710 432-512, looked up): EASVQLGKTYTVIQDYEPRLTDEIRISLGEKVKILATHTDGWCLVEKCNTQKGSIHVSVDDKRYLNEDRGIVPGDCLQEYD

T2: Lsb4, P32793
T2 sequence (P32793 402-468, looked up): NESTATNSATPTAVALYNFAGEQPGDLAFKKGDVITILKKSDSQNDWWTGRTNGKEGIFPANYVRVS

T3: Pin3, Q06449
T3 sequence (Q06449 53-122, looked up): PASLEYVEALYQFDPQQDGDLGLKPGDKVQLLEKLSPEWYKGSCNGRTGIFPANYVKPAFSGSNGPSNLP

T4: Sla1-3, P32790
T4 sequence (P32790 344-424, looked up): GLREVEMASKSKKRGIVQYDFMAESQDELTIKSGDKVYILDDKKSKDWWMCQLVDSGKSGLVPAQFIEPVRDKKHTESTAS

T5: Bbc1, P47068
T5 sequence (P47068 1-78, looked up): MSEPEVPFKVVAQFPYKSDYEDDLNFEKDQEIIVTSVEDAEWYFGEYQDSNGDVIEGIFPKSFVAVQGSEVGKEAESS

T6: Myo5, Q04439
T6 sequence (Q04439 1072-1160, looked up): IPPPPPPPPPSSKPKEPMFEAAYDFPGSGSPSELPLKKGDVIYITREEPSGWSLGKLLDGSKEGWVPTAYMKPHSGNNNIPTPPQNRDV

T7: Pex13, P80667
T7 sequence (P80667 295-386, looked up): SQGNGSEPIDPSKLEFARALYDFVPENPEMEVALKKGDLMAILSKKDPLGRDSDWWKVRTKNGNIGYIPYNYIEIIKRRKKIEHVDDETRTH

T8: Boi2, P39969
T8 sequence (P39969 32-116, looked up): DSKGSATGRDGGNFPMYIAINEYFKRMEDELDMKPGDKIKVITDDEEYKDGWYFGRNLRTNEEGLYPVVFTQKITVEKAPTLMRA

T9: Hse1, P38753
T9 sequence (P38753 208-285, looked up): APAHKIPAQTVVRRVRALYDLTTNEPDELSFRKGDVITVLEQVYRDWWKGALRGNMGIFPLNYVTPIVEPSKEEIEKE

T10: Sla1-2, P32790
T10 sequence (P32790 60-140, looked up): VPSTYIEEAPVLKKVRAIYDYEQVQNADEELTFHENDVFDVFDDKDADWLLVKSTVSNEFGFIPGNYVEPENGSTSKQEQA

T11: Bzz1-2, P38822
T11 sequence (P38822 568-633, looked up): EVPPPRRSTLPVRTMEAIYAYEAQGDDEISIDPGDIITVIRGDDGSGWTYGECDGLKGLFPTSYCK

T12: Lsb1, P53281
T12 sequence (P53281 45-122, looked up): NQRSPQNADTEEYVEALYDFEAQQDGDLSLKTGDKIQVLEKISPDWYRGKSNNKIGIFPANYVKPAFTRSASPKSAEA

T13: Cyk3, Q07533
T13 sequence (Q07533 1-83, looked up): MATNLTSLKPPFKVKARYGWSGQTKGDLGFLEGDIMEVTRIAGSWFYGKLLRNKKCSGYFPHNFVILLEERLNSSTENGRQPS

T14: Bzz1-1, P38822
T14 sequence (P38822 478-572, looked up): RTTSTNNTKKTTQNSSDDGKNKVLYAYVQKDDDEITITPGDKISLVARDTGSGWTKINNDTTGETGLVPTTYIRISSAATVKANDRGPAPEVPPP

T15: Nbp2, Q12163
T15 sequence (Q12163 103-180, looked up): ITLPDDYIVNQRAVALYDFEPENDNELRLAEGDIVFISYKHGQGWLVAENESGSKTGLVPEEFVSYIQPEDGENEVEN

T16: Bud14, P27637
T16 sequence (P27637 247-328, looked up): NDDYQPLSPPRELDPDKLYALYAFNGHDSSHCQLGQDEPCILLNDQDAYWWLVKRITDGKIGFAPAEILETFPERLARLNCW

T17: Boi1, P38041
T17 sequence (P38041 1-86, looked up): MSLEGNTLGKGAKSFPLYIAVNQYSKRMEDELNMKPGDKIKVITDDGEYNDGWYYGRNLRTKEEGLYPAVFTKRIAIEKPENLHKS

T18: Cdc25, P04821
T18 sequence (P04821 50-136, looked up): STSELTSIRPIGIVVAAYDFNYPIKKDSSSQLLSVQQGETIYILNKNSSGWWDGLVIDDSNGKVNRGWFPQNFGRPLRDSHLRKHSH

T19: Abp1, P15891
T19 sequence (P15891 535-592, looked up): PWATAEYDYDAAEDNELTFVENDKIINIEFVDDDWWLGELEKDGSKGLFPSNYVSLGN

T20: Hof1, Q05080
T20 sequence (Q05080 590-669, looked up): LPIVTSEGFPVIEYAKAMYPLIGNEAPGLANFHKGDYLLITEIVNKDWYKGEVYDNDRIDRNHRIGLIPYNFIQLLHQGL

T21: Lsb3, P43603
T21 sequence (P43603 385-451, looked up): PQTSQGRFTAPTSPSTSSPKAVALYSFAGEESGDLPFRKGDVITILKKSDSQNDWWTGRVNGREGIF


What was measured:
Experiment in all cases: SPOT array
Sho1, P40073 = details: median of control spots 1148
Fus1, P11710 = target: T1, Fus1, P11710; details: median of control spots 1200
Bem1-2, P29366 = details: median of control spots 4347
GST = details: median of control spots 978
Lsb4, P32793 = target: T2, Lsb4, P32793; details: median of control spots 397
Bem1-1, P29366 = details: median of control spots 4282
Pin3, Q06449 = target: T3, Pin3, Q06449; details: median of control spots 2171
Sla1-3, P32790 = target: T4, Sla1-3, P32790; details: median of control spots 5475
Bbc1, P47068 = target: T5, Bbc1, P47068; details: median of control spots 796
Myo5, Q04439 = target: T6, Myo5, Q04439; details: median of control spots 471
Pex13, P80667 = target: T7, Pex13, P80667; details: median of control spots 1341
Boi2, P39969 = target: T8, Boi2, P39969; details: median of control spots 1161
Hse1, P38753 = target: T9, Hse1, P38753; details: median of control spots 1727
Sla1-2, P32790 = target: T10, Sla1-2, P32790; details: median of control spots 712
Bzz1-2, P38822 = target: T11, Bzz1-2, P38822; details: median of control spots 4538
Lsb1, P53281 = target: T12, Lsb1, P53281; details: median of control spots 388
Cyk3, Q07533 = target: T13, Cyk3, Q07533; details: median of control spots 1451
Bzz1-1, P38822 = target: T14, Bzz1-1, P38822; details: median of control spots 4446
Nbp2, Q12163 = target: T15, Nbp2, Q12163; details: median of control spots 357
Bud14, P27637 = target: T16, Bud14, P27637; details: median of control spots 956
Boi1, P38041 = target: T17, Boi1, P38041; details: median of control spots 1162
Myo3, P36006 = details: median of control spots 468
Rvs167, P39743 = details: median of control spots 2707
Cdc25, P04821 = target: T18, Cdc25, P04821; details: median of control spots 969
Abp1, P15891 = target: T19, Abp1, P15891; details: median of control spots 935
Hof1, Q05080 = target: T20, Hof1, Q05080; details: median of control spots 4086
Lsb3, P43603 = target: T21, Lsb3, P43603; details: median of control spots 406

Chain of Sho1, P40073 (P40073 287-367): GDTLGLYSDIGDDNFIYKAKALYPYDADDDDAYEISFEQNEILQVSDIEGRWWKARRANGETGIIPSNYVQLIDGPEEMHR
Chain of Rvs167, P39743 (P39743 419-482): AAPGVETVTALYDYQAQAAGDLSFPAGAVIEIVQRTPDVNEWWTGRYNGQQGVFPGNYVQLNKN
Chain of Bem1-1, P29366 (P29366 55-141): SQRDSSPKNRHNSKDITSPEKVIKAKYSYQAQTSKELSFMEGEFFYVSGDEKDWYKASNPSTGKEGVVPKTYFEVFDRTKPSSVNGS
Chain of Bem1-2, P29366 (P29366 139-227): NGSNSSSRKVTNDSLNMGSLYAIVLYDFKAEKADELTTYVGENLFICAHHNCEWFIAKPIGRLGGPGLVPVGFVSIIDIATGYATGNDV

Binder	SPOT intensity (Sho1, P40073)	SPOT intensity (Fus1, P11710)	SPOT intensity (Bem1-2, P29366)	SPOT intensity (GST)	SPOT intensity (Lsb4, P32793)	SPOT intensity (Bem1-1, P29366)	SPOT intensity (Pin3, Q06449)	SPOT intensity (Sla1-3, P32790)	SPOT intensity (Bbc1, P47068)	SPOT intensity (Myo5, Q04439)	SPOT intensity (Pex13, P80667)	SPOT intensity (Boi2, P39969)	SPOT intensity (Hse1, P38753)	SPOT intensity (Sla1-2, P32790)	SPOT intensity (Bzz1-2, P38822)	SPOT intensity (Lsb1, P53281)	SPOT intensity (Cyk3, Q07533)	SPOT intensity (Bzz1-1, P38822)	SPOT intensity (Nbp2, Q12163)	SPOT intensity (Bud14, P27637)	also measured
FLIKFTPKFPQSIDH	304	100	0	0	63	1	41	13	44	27	73	0	25	10	9	46	0	0	418	5	SPOT intensity (Boi1, P38041): 7; SPOT intensity (Myo3, P36006): 77; SPOT intensity (Rvs167, P39743): 2; SPOT intensity (Cdc25, P04821): 209; SPOT intensity (Abp1, P15891): 417; SPOT intensity (Hof1, Q05080): 24; SPOT intensity (Lsb3, P43603): 32
QFDLKMPSKPIHNLK	7	0	0	0	27	0	68	0	0	29	95	2	0	2	0	1	0	0	0	0	SPOT intensity (Boi1, P38041): 0; SPOT intensity (Myo3, P36006): 34; SPOT intensity (Rvs167, P39743): 6; SPOT intensity (Cdc25, P04821): 1; SPOT intensity (Abp1, P15891): 41; SPOT intensity (Hof1, Q05080): 0; SPOT intensity (Lsb3, P43603): 9
FVLRYYILIPHEQWD	5	42	13	0	0	2	9	3	15	0	10	1	2	3	2	2	0	1	47	1	SPOT intensity (Boi1, P38041): 6; SPOT intensity (Myo3, P36006): 0; SPOT intensity (Rvs167, P39743): 0; SPOT intensity (Cdc25, P04821): 59; SPOT intensity (Abp1, P15891): 0; SPOT intensity (Hof1, Q05080): 5; SPOT intensity (Lsb3, P43603): 0
VGFRLALKFPSRITG	718	430	0	0	207	0	150	124	663	69	127	70	113	52	109	452	25	3	1100	29	SPOT intensity (Boi1, P38041): 152; SPOT intensity (Myo3, P36006): 164; SPOT intensity (Rvs167, P39743): 6; SPOT intensity (Cdc25, P04821): 490; SPOT intensity (Abp1, P15891): 489; SPOT intensity (Hof1, Q05080): 25; SPOT intensity (Lsb3, P43603): 166
